Data taken from patent publication US20180057553A1, “CONJUGATE AND USE THEREOF” (The University of Tokyo, priority 2015, published 2018).

Biological target: recombinant human TNF-alpha (Life Technologies) (human) (UniProt P01375)
Test: SPR (Biacore), Etanercept amine-coupled to chip, TNF-alpha as analyte

recombinant human TNF-alpha (Life Technologies) (human), sequence (P01375 77-233 limits assumed): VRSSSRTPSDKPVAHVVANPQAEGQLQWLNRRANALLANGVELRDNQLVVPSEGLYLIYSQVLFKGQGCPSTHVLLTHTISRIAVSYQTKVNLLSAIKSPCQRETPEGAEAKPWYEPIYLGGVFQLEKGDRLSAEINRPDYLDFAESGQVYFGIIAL

Kd: 0.313 nM
Substance: Etanercept (soluble TNF receptor, product name Enbrel, Takeda Pharmaceutical Company) (Fc fusion)
